# Data taken from patent US20190127446A1.
# How the values were obtained:
# [1] = biological target: soluble mouse Fcγ-receptor IIB (mouse) (UniProt P08101); experiment: SPR
# [2] = biological target: soluble mouse Fcγ-receptor III (mouse) (UniProt P08508); experiment: ratio of SPR KA values
# [3] = biological target: soluble version of the extracellular domain of gp75; experiment: SPR; soluble gp75 extracellular domain injected over immobilized antibody
# [4] = biological target: soluble mouse Fcγ-receptor IIB (mouse) (UniProt P08101); experiment: SPR (Biacore), soluble receptor injected over immobilized antibody, 1:1 Langmuir
# [5] = biological target: soluble mouse Fcγ-receptor III (mouse) (UniProt P08508); experiment: as above
# [6] = biological target: soluble mouse Fcγ-receptor IV (mouse); experiment: SPR
# [7] = biological target: soluble mouse Fcγ-receptor IV (mouse); experiment: ratio of SPR KA values
# [8] = biological target: soluble mouse Fcγ-receptor I (mouse) (UniProt P26151); experiment: SPR (Biacore), soluble receptor injected over immobilized antibody, 1:1 Langmuir
# [9] = biological target: soluble mouse Fcγ-receptor IV (mouse); experiment: as above
# [10] = biological target: soluble human Fcγ-receptor IIA (131H-allele) (human) (UniProt P12318); experiment: ratio of SPR KA values
# [11] = biological target: soluble human Fcγ-receptor IIIA (158F-allele) (human) (UniProt P08637); experiment: ratio of SPR KA values
# [12] = biological target: soluble human Fcγ-receptor IIA (131H-allele) (human) (UniProt P12318); experiment: SPR, soluble human Fcγ-receptor and human IgG isotype
# [13] = biological target: soluble human Fcγ-receptor IIB (human) (UniProt P31994); experiment: as above
# [14] = biological target: soluble human Fcγ-receptor IIIA (158F-allele) (human) (UniProt P08637); experiment: as above
# Sequence of soluble human Fcγ-receptor IIA (131H-allele) (human) (P12318 34-217): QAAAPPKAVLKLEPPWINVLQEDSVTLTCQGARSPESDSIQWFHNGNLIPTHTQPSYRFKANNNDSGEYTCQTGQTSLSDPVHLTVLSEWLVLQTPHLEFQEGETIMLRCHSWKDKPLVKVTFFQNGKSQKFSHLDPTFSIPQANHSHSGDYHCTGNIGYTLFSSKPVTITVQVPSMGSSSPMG
# Sequence of soluble mouse Fcγ-receptor IIB (mouse) (P08101 other isoform, or with tags, fused parts or gaps): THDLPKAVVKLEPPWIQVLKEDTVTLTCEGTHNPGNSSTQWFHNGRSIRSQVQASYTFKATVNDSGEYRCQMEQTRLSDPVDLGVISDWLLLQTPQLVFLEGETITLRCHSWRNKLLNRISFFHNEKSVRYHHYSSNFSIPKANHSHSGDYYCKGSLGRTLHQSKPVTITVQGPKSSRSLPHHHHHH
# Sequence of soluble mouse Fcγ-receptor III (mouse) (P08508 other isoform, or with tags, fused parts or gaps): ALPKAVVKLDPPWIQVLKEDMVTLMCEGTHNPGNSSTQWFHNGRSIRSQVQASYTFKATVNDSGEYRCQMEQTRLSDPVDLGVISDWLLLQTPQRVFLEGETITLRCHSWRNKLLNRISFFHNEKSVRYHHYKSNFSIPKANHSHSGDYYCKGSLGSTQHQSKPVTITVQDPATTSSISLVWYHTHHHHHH
# Sequence of soluble human Fcγ-receptor IIIA (158F-allele) (human) (P08637 17-208): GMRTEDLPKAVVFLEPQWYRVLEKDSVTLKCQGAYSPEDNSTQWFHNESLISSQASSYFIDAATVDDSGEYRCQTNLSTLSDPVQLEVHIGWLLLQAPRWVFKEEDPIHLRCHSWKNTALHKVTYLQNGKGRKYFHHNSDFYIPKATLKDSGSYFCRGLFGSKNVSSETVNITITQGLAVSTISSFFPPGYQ
# Sequence of soluble human Fcγ-receptor IIB (human) (P31994 43-217): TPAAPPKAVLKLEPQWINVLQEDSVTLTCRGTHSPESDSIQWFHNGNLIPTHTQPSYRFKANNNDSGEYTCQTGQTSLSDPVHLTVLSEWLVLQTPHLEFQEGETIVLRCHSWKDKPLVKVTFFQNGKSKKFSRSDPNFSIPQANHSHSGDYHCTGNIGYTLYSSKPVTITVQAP
# Sequence of soluble mouse Fcγ-receptor I (mouse) (P26151 other isoform, or with tags, fused parts or gaps): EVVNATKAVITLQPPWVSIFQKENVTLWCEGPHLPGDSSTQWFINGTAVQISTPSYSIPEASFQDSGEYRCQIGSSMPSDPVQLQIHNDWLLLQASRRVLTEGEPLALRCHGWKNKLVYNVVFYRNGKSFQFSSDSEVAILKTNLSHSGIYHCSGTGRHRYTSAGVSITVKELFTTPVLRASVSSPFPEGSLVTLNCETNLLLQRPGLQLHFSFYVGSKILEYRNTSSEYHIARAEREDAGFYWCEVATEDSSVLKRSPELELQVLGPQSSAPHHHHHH
Substance,Ka [3],Kd [3],Ka [4],Ka [5],A/I (ratio of sFcγRIV to sFcγRIIB) [7],Ka [9],A/I IIA/IIB (ratio of affinity to that for FcγRIIB) [10],A/I IIIA/IIB (ratio of affinity to that for FcγRIIB) [11],Ka [12],Ka [13],Ka [14],further results
TA99-IgG1 (fucose-containing) (antibody),2.7e+09 M⁻¹,380 pM,3.33e+06 M⁻¹,310000 M⁻¹,–,–,–,–,–,–,–,fold higher affinity than to FcγRIII [1]: 10 fold; A/I (ratio of affinity for sFcγRIII to that for FcγRIIB) [2]: 0.1
TA99-IgG1 deficient in fucose (antibody),–,–,1.32e+06 M⁻¹,510000 M⁻¹,–,–,–,–,–,–,–,A/I (ratio of affinity for sFcγRIII to that for FcγRIIB) [2]: 0.4
TA99-IgG3 (antibody),1.5e+09 M⁻¹,660 pM,–,–,–,–,–,–,–,–,–,–
human IgG1 antibody isotype,–,–,–,–,–,–,3.1,5.5,250000 M⁻¹,78000 M⁻¹,430000 M⁻¹,–
human IgG1 antibody isotype lacking fucose,–,–,–,–,–,–,3.1,76,240000 M⁻¹,78000 M⁻¹,6e+06 M⁻¹,–
human IgG4 antibody isotype,–,–,–,–,–,–,0.7,–,35000 M⁻¹,48000 M⁻¹,–,–

# Continued, in another order:
Ka [3],Kd [3],Ka [4],Ka [5],A/I (ratio of sFcγRIV to sFcγRIIB) [7],Ka [9],A/I IIA/IIB (ratio of affinity to that for FcγRIIB) [10],A/I IIIA/IIB (ratio of affinity to that for FcγRIIB) [11],Ka [12],Ka [13],Ka [14],Substance,further results
1.6e+09 M⁻¹,610 pM,420000 M⁻¹,680000 M⁻¹,69,2.9e+07 M⁻¹,–,–,–,–,–,TA99-IgG2a (fucose-containing) (antibody),fold higher affinity than to FcγRIIB [6]: 10 fold; Ka [8]: 1.6e+08 M⁻¹
–,–,3.34e+06 M⁻¹,1.54e+06 M⁻¹,92,3.06e+08 M⁻¹,–,–,–,–,–,TA99-IgG2a deficient in fucose (antibody),Ka [8]: 1.8e+08 M⁻¹
1.8e+09 M⁻¹,570 pM,2.23e+06 M⁻¹,640000 M⁻¹,7,1.7e+07 M⁻¹,–,–,–,–,–,TA99-IgG2b (fucose-containing) (antibody),fold higher affinity than to FcγRIIB [6]: 10 fold
–,–,1e+07 M⁻¹,1.06e+06 M⁻¹,20,2.03e+08 M⁻¹,–,–,–,–,–,TA99-IgG2b deficient in fucose (antibody),–
–,–,–,–,–,–,4.5,0.4,140000 M⁻¹,30000 M⁻¹,14000 M⁻¹,human IgG2 antibody isotype,–
–,–,–,–,–,–,5.3,5.7,130000 M⁻¹,26000 M⁻¹,140000 M⁻¹,human IgG2 antibody isotype lacking fucose,–
